Assay results taken from patent US20100055121A1 (US Dept. of Health and Human Services, published 2010).

What was measured:
[1] = target: T1, HLA-A0201 molecules on T2 (HLA-A2+) cells (human); assay: T2 cell surface HLA-A02 stabilisation, flow cytometry, 25 µM peptide
T1 construct: whole, on cells; MHC class I molecule on T2 cells; also called HLA-A2.1
Protocol: (§1) HLA-A2 binding assay. […] T2 cells (1×10⁶) in serum-free Iscove's modified Dulbecco's medium were incubated in the presence of various concentrations of each peptide, in 24-well culture plates at 37° C. with 5% CO₂. After 18 hours in culture, T2 cells were harvested, washed with 1× phosphate buffered saline (PBS) (Invitrogen) and stained with 20 μl of a FITC-conjugated anti-HLA-A02-specific monoclonal antibody (MAb) (One Lambda, Inc., Canoga Park, Calif.). A FITC-conjugated IgG2a MAb (BD Biosciences, San Jose, Calif.) was used as an isotype control. Data acquisition and analysis were conducted on a FACSCalibur™ system using the CELLQueSt™ software (BD Biosciences). Results were expressed as mean fluorescence intensity (MFI) collected on a log scale. […] Assuming first order kinetics, the log₂ of MFI/MFI₀ (MFI is the fluorescence at each time point and MFI₀ the initial fluorescence at time 0) was plotted against time (minutes). The decay rate constant was calculated as the slope of the linear regression for each curve and the half-life of each peptide-MHC complex was calculated as […].
In silico-predicted epitopes were then assessed for binding to the MHC molecules in a cell-based assay. […]

[2] = target: T1, HLA-A0201 molecules on T2 (HLA-A2+) …; assay: T2 cells loaded with 25 µM peptide, brefeldin A chase, HLA-A02 flow cytometry over time
Protocol: as §1
In silico-predicted epitopes were then assessed for binding to the MHC molecules in a cell-based assay. TAP-deficient T2 (HLA-A2+) cells were incubated in the presence of 25 μM of each peptide and subsequently tested for cell surface MHC-stabilization by bound peptides.

SQYPSLWSV [Brachyury peptide T-p1]: binds [1].

With WLLPGTSTL (Synthesized at >90% purity) [Brachyury peptide T-p2] the “half-life of MHC-peptide complex” value [2] was 8.57 h.

In the case of RLIASWTPV (Synthesized at >90% purity) [Brachyury peptide T-p3], the “half-life of MHC-peptide complex” value [2] is reported as 3.75 h.

For AMYSFLLDFV (Synthesized at >90% purity) [Brachyury peptide T-p4], the “half-life of MHC-peptide complex” value [2] was 5.2 h.
